These results are taken from US20250289873A1 (published 2025).

Substitutions are numbered along the chain they refer to.

This experiment concerns the target hCFHR4. The experiment is described as follows: SPR kinetics.

B1: ATX-P-571 (antibody, V domains shown)
VH: QVQLQESGPGLVKPSGTLSLTCAVSGGSISSRNWWSWVRQPPGKGLEWIGEIYHGGTTNYNPSLKSRVTISVDKSKNQFSLKLSSVTAADTAVYYCARGGLRLGELSPNAFDIWGQGTMVTVSS
VL: DIQMTQSPSSLSASVGDRVTITCRASQSISSYLNWYQQKPGKAPKVLIYAASSLQSGIPSRFSGSGSGTDFTLTISSLQPEDFATYYCQETYSVPLTFGGGTKVEIKR
The molecule B1 yielded an equilibrium dissociation constant (Kd) of 27.4 nM.

B2: ATX-P-597 (antibody, V domains shown)
VH: QVQLVQSGAEVKKPGASVKVSCKASGYTFTNYYMQWVRQAPGQGLEWLGIIDPSGGSTTYAQKFQGRVTMTRDTSTSTVHMELRSLRSEDTAVYYCARDEGTDRPGWGYWGQGTLVTVSS
VL: B1 VL with V15I, N34D, Q38R, P40S, V46L, I58V, E90Q, T91S, V94T, E105D
Consider B2, for which the Kd stood at 0.168 nM.

B3: ATX-P-602 (antibody, V domains shown)
VH: not shown
VL: EIVLTQSPGTLSLSPGERATLSCRASQSVSSSYLAWYQQKPGQAPRLLIYGASSRATGIPDRFSGSGSGTQFTLTISSLQSEDFAVYYCQQYGSSPWTFGQGTKVDIKR
In turn, B3 displayed a Kd of 33 nM.

B4: ATX-P-601 (antibody, V domains shown)
VH: QVQLVQSGAEVKKPGASVKVSCKASGYTFTSYYMHWVRQAPGQGLEWMGIINPSGGSTNYAQKFQGRLTMTRDTSTNTVYMELSSLRSEDTAVYYCATDQSGGMDVWGKGTTVTVSS
VL: DIQMTQSPSSLSASVGDRVTITCRASQSINIYLNWYQQKPEKDPKLLIYAASSLQSGVPSRFSGSGSGTDFTLTISNLQPEDFATYYCQQSYSTPITFGQGTRLEIKR
For B4, binding was characterised by a dissociation constant (Kd) of 18.2 nM.

B5: ATX-P-607 (antibody, V domains shown)
VH: QVQLVQSGAEVKKPGASVKVSCKASGYTFTSYYMHWVRQAPGQGLEWMGIINPSGGSTSYAQKFQGRVTMTRDTSTNTVYMELSSLRSEDTAVYYCARDPEYSSAFDIWGQGTMVTVSS
VL: DIQMTQSPSSLSASVGDRGTITCRASQSIRSYLNWYQQKPGKAPKLLIYAASSLQSGVPSRFSGSGSGTDFTLTISSLQPEDFATYYCQQSYRTPVTFGPGTKVDIKR
B5: the Kd stood at 7.97 nM.

B6: ATX-P-609 (antibody, V domains shown)
VH: QVQLQESGPGLVKPSGTLSLTCAVSGGSISSSNWWSWVRQPPGKGLEWIGEIYHSGSTNYNPSLKSRVTISVDKSKNQFSLKLRSVTAADTAVYYCARDQLSSGPTDAFDIWGQGTMVTVSS
VL: EIVMTQSPATLSVSPGERATLSCRASQSVSSNLAWYQQKPGQAPRLLIYGASTRATGIPVRFSGSGSGTQFTLTISSLQSEDFAVYYCQQYDNWRTFGQGTKLEIKR
In turn, B6 returned a Kd of 4.98 nM.

B7: ATX-P-608 (antibody, V domains shown)
VH: QVQLQESGPGLVKPSGTLSLTCAVSGGSISSSNWWSWVRQSPGKGLEWIGEIYHTGSTNKKPSLKSRVIISVDKSKNQFSLKLISVNAADTAIYYCARDREGGTTEAFDIWGQGTMVTVSS
VL: B6 VL with K102R
As to B7, the dissociation constant Kd was found to be 0.347 nM.

B8: ATX-P-570 (antibody, V domains shown)
VH: QVQLQESGPGLVKPSETMSLTCTVSGGSFTGYYWSWIRQPPGKGLEWIGYVHYSGGTKSNPSLKSRVTISVDTSKNQFSLKLSSVTAADTAVYYCARERYEWNSYFDYWGQGTLVTVSS
VL: not shown
In turn, B8 came in with a Kd of 10.5 nM.

B9: ATX-P-588 (antibody, V domains shown)
VH: EVQLVESGGGLVQPGRSLRLSCAASGFTFEDYAMHWVRQAPGKGLEWVSGISWNSGSIGYADSVKGRFTISRDNAKKSLYLQMNSLRAEDTALYYCTKDRDDGYNYAGVFDYWGQGTLVTVSS
VL: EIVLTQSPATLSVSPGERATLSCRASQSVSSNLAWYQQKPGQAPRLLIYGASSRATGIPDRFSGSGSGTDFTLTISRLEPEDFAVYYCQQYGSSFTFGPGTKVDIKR
The molecule B9 returned an equilibrium dissociation constant (Kd) of 6.87 nM.

B10: ATX-P-574 (antibody, V domains shown)
VH: EVQLVESGGGLVQRGGSLRLSCVASGFTFSSYAMSWVRQAPGKGLEWVSVISGSGGTTYYADSVKGRFTISRDDSKKTLYLQMNSLRAEDTAVYYCAKRGDYGDYMDVWGKGTTVTVSS
VL: DIQMTQSPSSVSASVGDRVTITCRASQGITTWLAWYQQKPGKAPKLLIFGASSLESGVPSRFSGSGSGTDFTLTISSLQPEDFATYYCQQANSFPWTFGQGTKVEIKR
Molecule B10 gave a Kd of 5.9 nM.

B11: ATX-P-561 (antibody, V domains shown)
VH: QVQLQQSGPGLVKPSQTLSLTCAISGDSVSSNSAAWNWIRQSPSRGLEWLGRTYYRSKWYNGYAVSMKSRITINPDTSKNQFSLQLNSVTPEDTAMYYCAREGVGATTGFDYWGQGTLVTVSS
VL: B10 VL with V11L, T30S, T31S, A34T, F49Y, G50A, E55Q, S56G, W96P
As for B11, the dissociation constant (Kd) turned out to be 31.9 nM.

B12: ATX-P-562 (antibody, V domains shown)
VH: QVQLQQSGPGLVKSSQTLSLTCAISGDTVSSNSAAWNWIRQSPSRGLEWLGRTFYRSRWSAAYAASVSSRITINPDTSKNQFSLQLTSVTPADTAVYYCAREGVGSSTGFDYWGQGTLVTVSS
VL: B10 VL with V15I, Q27K, T30S, T31I, L46V, F49S, G50A, E55Q, V58A, W96P
The molecule B12 yielded a dissociation constant Kd of 0.487 nM.

B13: ATX-P-560 (antibody, V domains shown)
VH: QVQLQQSGPGLVKPSQTLSLTCAISGDSVSSNTAAWNWIRQSPSRGLEWLGRTYYRSKWYNDYAVSVKSRITINPDTSKNQFSLQLSSVTPQDTAIYYCASDNWNNGGPGFDPWGQGTLVTVSS
VL: B10 VL with A13T, T30S, T31S, F49S, G50A, E55Q, S77T, T85S, W96P, K103R
Regarding B13, the Kd is 2.12 nM.

B14: ATX-P-579 (antibody, V domains shown)
VH: QVQLQESGPGLVKPSGTLSLTCAVSGASISTSNWWTWVRQPPGKGLEWIGEIYHDGSTNYSPSLQSRVTISVDKSKNQFSLTLTSVTAADTAIYYCGDFYIDVWGNGTTVTVSS
VL: DIQMTQSPSSLSASVGDRVTITCRASQGIRKDLGWYQQKPGKAPKRLIYTASTLQSGVPSRFSGSGSGTEFTLTISSLQPEDFATYYCLQYNNYPFTFGPGTKVDIKR
Molecule B14 registered a dissociation constant Kd of 1.46 nM.

B15: ATX-P-580 (antibody, V domains shown)
VH: QVQLQESGPGLVKPSGTLSLTCAVSGGSISTSDWWTWVRQPPGKGLEWIGEIYHSGSTNYNPSLKSRVTISVDKSKNQFSLKLSSVTAADTAVYYCADWYFDLWGRGTLVTVSS
VL: B14 VL with K31N, T50A, T53S, T74A, Q90H, Y91F, N93S
In the case of B15, binding was characterised by a dissociation constant (Kd) of 31.9 nM.

B16: ATX-P-572 (antibody, V domains shown)
VH: QVQLQQSGPGLVKPSQTLSLTCAISGDSVSSNSAAWNWIRQSPSRGLEWLGMTYYRSKWYSVFAVSVKSRITINTDTSKNQFSLQLNSVTPEDTAVYYCAREGGIVGATPFDYWGQGTLVTVSS
VL: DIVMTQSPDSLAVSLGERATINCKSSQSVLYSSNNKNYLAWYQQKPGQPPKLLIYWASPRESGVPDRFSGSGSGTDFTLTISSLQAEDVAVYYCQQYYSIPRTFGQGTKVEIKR
On to B16, for which the equilibrium dissociation constant (Kd) came out at 1.5 nM.

B17: ATX-P-583 (antibody, V domains shown)
VH: QVQLVQSGAEVKKPGASVKVSCKASGYTFTTYGISWVRQAPGQGLEWMGWISAYSGNTHYAQSLQDRVTMTTDTSTSTAYMEVRSLRSDDTAVYYCAKDEGYCSSTGCLNLFDPWGQGTLVTVSS
VL: DIQMTQSPSSLSASVGDRVTITCRASQNIGSYLNWYQQKPGNAPKLLIYATSTLQSGVPSRFSGSGSGTDFTLIISSLHPEDFTVYYCQQSFIIPFTFGPGTKVDIKR
B17 had a Kd of 0.317 nM.
